# In paper PMC8143792, “Sec17/Sec18 can support membrane fusion without help from completion of SNARE zippering” (eLife, 2021):
# T1: Qa (Vam3), full-length (Saccharomyces cerevisiae, UniProt Q12241 1-283)
# T1 construct: Vam3, the vacuolar Qa-SNARE of Saccharomyces cerevisiae, full length with its transmembrane anchor; whether GST was removed is told only in the cited work; also called GST-Qa (Vam3); source: E. coli, purified
# T1 sequence (looked up): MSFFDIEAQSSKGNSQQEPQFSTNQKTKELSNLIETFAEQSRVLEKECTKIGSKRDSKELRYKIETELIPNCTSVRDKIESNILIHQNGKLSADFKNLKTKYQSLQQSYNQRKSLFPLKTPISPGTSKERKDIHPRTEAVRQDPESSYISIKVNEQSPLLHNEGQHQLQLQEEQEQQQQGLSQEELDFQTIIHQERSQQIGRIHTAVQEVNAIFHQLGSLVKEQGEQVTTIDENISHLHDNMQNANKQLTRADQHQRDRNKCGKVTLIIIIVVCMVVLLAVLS
# B1: his6-R (Nyv1), full-length R-SNARE with a 6his-tag on its N-terminus (natural protein, Saccharomyces cerevisiae, UniProt Q12255 1-253, looked up)
# chain: MKRFNVSYVEVIKNGETISSCFQPFQKNENYGTITSANEQITPVIFHNLIMDMVLPKVVPIKGNKVTKMSMNLIDGFDCFYSTDDHDPKTVYVCFTLVDMPKILPIRILSGLQEYESNATNELLSSHVGQILDSFHEELVEYRNQTLNSSGNGQSSNGNGQNTISDIGDATEDQIKDVIQIMNDNIDKFLERQERVSLLVDKTSQLNSSSNKFRRKAVNIKEIMWWQKVKNITLLTFTIILFVSAAFMFFYLW
# notes: Nyv1, the vacuolar R-SNARE of Saccharomyces cerevisiae, full length with its membrane anchor; construct as in the cited work (PMID:22174414); also called His-R (Nyv1); source: E. coli, purified; not shown: His6, N-terminal, kept
# Assays:
# [1] = biological target: B1; assay: pull-down; his6-R held on nickel-NTA agarose; 2.5 µM of each SNARE (R and three Q-SNAREs mixed), Buffer 151 (20 mM HEPES-NaOH, pH 7.4, 150 mM NaCl, 10% glycerol, 1% ß-OG, 20 mM imidazole), 4°C, 2 hr then 1 hr on beads; immunoblot; details: both partners purified
# Qa (Vam3), full-length = biological target: T1, Qa (Vam3), full-length; assay: as above; details: both partners purified
binding result [1],"binding result (Qa (Vam3), full-length)",Binder
binds,–,"sQb3Δ, soluble Qb (Vti1) with amino acyl residues 1–160 (domain or fragment, Saccharomyces cerevisiae, UniProt Q04338 1-160, looked up, Vti1 of Saccharomyces cerevisiae, residues 1-160; lacks the regions C-terminal to the +3 layer of the SNARE domain; also called GST-sQb3Δ; GST-Qb (Vti1)3Δ; source: E. coli Rosetta2 (DE3)-pLysS, purified (glutathione agarose), GST tag removed by TEV protease) MSSLLISYESDFKTTLEQAKASLAEAPSQPLSQRNTTLKHVEQQQDELFDLLDQMDVEVNNSIGDASERATYKAKLREWKKTIQSDIKRPLQSLVDSGDRDRLFGDLNASNIDDDQRQQLLSNHAILQKSGDRLKDASRIANETEGIGSQIMMDLRSQRE"
binds,–,"sQa3Δ, soluble Qa (Vam3) with amino acyl residues 1–235 (domain or fragment, Saccharomyces cerevisiae, UniProt Q12241 1-235, looked up, Vam3 of Saccharomyces cerevisiae, residues 1-235; lacks the regions C-terminal to the +3 layer of the SNARE domain; also called GST-sQa3Δ; GST-Qa (Vam3)3Δ; source: E. coli Rosetta2 (DE3)-pLysS, purified (glutathione agarose), GST tag removed by TEV protease) MSFFDIEAQSSKGNSQQEPQFSTNQKTKELSNLIETFAEQSRVLEKECTKIGSKRDSKELRYKIETELIPNCTSVRDKIESNILIHQNGKLSADFKNLKTKYQSLQQSYNQRKSLFPLKTPISPGTSKERKDIHPRTEAVRQDPESSYISIKVNEQSPLLHNEGQHQLQLQEEQEQQQQGLSQEELDFQTIIHQERSQQIGRIHTAVQEVNAIFHQLGSLVKEQGEQVTTIDENI"
–,binds,B1
binds,–,"Qb (Vti1), full-length (natural protein, Saccharomyces cerevisiae, UniProt Q04338 1-217, looked up, Vti1, the vacuolar Qb-SNARE of Saccharomyces cerevisiae, full length with its transmembrane anchor; whether GST was removed is told only in the cited work; also called GST-Qb (Vti1); source: E. coli, purified) MSSLLISYESDFKTTLEQAKASLAEAPSQPLSQRNTTLKHVEQQQDELFDLLDQMDVEVNNSIGDASERATYKAKLREWKKTIQSDIKRPLQSLVDSGDRDRLFGDLNASNIDDDQRQQLLSNHAILQKSGDRLKDASRIANETEGIGSQIMMDLRSQRETLENARQTLFQADSYVDKSIKTLKTMTRRLVANKFISYAIIAVLILLILLVLFSKFK"
